The record followed here is paper PMC10132805 (Nature Communications, 2023).

T1: N-terminal domain of clathrin (human, UniProt Q00610 1-364)
T1 construct: also called CLTC NTD; CLTC-NTD
T1 sequence: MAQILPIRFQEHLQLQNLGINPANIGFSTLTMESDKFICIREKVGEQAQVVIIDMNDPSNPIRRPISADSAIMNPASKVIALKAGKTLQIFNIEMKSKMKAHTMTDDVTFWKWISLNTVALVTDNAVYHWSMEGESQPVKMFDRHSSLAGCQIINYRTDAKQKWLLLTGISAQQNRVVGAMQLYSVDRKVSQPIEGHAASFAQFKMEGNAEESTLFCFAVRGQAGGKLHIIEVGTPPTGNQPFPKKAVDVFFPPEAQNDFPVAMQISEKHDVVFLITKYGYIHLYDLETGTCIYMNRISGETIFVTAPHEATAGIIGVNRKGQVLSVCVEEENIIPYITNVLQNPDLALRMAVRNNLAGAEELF

T2: GAE domain of ADP-ribosylation factor-binding protein GGA3 (GGA3 GAE) (human, UniProt Q9NZ52 594-715)
T2 construct: also called GGA3 ear
T2 sequence (looked up): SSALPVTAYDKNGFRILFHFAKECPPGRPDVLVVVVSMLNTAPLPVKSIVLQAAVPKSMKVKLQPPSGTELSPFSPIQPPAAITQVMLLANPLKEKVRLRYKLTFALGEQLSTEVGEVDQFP

T3: Mu homology domain (MHD) of the AP-2 subunit mu (AP2M1 MHD) (human, UniProt Q96CW1 170-434)
T3 sequence (looked up): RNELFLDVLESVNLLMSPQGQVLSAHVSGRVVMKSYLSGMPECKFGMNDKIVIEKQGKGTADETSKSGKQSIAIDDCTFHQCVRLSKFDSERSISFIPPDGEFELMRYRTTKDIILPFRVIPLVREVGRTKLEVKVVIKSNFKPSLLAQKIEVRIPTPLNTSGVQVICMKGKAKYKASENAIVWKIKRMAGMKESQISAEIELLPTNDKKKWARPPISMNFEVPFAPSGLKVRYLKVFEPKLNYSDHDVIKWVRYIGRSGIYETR

B1: tumor susceptibility gene 101 protein UEV domain (TSG101 UEV) (domain or fragment)
chain: AVSESQLKKMVSKYKYRDLTVRETVNVITLYKDLKPVLDSYVFNDGSSRELMNLTGTIPVPYRGNTYNIPICLWLLDTYPYNPPICFVKPTSSMTIKTGKHVDANGKIYLPYLHEWKHPQSDLLGLIQVMIVVFGDEPPVFSRP
B2: VHS domain of ADP-ribosylation factor-binding protein GGA3 (GGA3 VHS) (domain or fragment)
chain: ATNPSNRQEDWEYIIGFCDQINKELEGPQIAVRLLAHKIQSPQEWEALQALTVLEACMKNCGRRFHNEVGKFRFLNELIKVVSPKYLGDRVSEKVKTKVIELLYSWTMALPEEAKIKDAYHMLKRQGIVQS
B3: C terminal domain of polyadenylate-binding protein 1 (PABP1 PABC) (domain or fragment)
chain: QEPLTASMLASAPPQEQKQMLGERLFPLIQAMHPTLAGKITGMLLEIDNSELLHMLESPESLRSKVDEAVAVLQAHQA
notes: also called PABPC1 PABC; PABP1 C

No end group written: not given here. *: point of attachment. FITC = O=C1OC2(c3ccc(O)cc3Oc3cc(O)ccc32)c2ccc(NC(=S)*)cc21

The target of the first test is T1, N-terminal domain of clathrin. Particulars: both partners purified.
VDGAADLIDFSVPTDE [mu-NS_(705-720) (MRV1) peptide]: the binding result is given as “binds”.

A further test deals with T4, C terminal domain of polyadenylate-binding protein 1 (human, UniProt P11940 544-623).
T4 construct: also called PABP1 PABC; PABC
T4 sequence (P11940 544-623): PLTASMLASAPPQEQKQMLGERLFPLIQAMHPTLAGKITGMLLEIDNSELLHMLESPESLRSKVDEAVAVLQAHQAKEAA
Particulars: both partners purified.
Consider SAGLNPAAVPFVPKNQ [P/V/C_(183-198) (HeV) peptide], for which the “fold weaker affinity than PAIP2(108-123)” value came to 10 fold. Turning to HPLLNPSALEFNPSQT [N_(351-366) (HCoV 229E) peptide], the binding result is listed as “binds”. On to TTGLNPTAVPFTLRNL [P/V/C_(183-198) (NiV) peptide], for which the binding result is on record as “binds”. The same measure, in the same setting: for KSNLNPNAKEFVPGVK (peptide, UniProt Q9BPZ3 108-123, looked up, also called PAIP2 peptide) [PABP-interacting protein 2 peptide PAIP2_(108-123)] the value was “binds”.

Another test addresses B3. The note with it: both partners purified.
For the molecule SAGLNPAAVPFVPKNQY [P/V/C 183-198 (HeV)], the dissociation constant Kd was determined as 2 ± 0.3 µM.

Molecule MSKLSVNAPEFYPSGY [PAIP1 125-140 (Human)] showed a Kd of 1.58 ± 0.08 µM. On the same count and under the same terms, the same measure for KSNLNPNAKEFVPGVKY [PAIP2 108-123 (Human)]: 0.16 ± 0.2 µM.

TTGLNPTAVPFTLRNLY [P/V/C 183-198 (NiV)]: the Kd was 14.6 ± 0.8 µM.

For another test, the target named is B1. Particulars: both partners purified.
VDEEKGLYPNLKLTEPTAPMIHNYM [Nsp4 118-142 (BAV)] showed a Kd of 73 ± 2 µM. On the same count and under the same terms, for NLKLTEPTAPMIHNYM [Nsp4 127-142 (BAV)] the value was 64 ± 4 µM.

TPEPVVPTAPELRPSTY [MDC1 1280-1295 (Human)]: the affinity, expressed as Kd, was 28 ± 0.7 µM. Same read-out and setting: for {FITC}-GLIPTAPPAD [FITC - gag 453-462 (HIV2)] the value was 3.1 ± 0.2 µM; for QSIAREPSAPSIPTPAY [PDCD6IP 711-727 (Human)], 152 ± 1 µM. As to MRRVTVPTAPPAYADIGYPM [VP40 1-20 (SEBOV)], the Kd worked out at 12.2 ± 0.3 µM.

In the next test the target is VP0 79-94 (HPeV5) (Human parechovirus 5 (strain CT86-6760) …). The note with it: both partners purified.
In the case of B1, binding was characterised by a dissociation constant (Kd) of 75 ± 0.7 µM.

Another test concerns the target P1 54-69 (SFV) (Semliki forest virus (SFV)). The note with it: both partners purified.
Molecule B2 returned a dissociation constant Kd of 82 ± 5 µM.

A further test deals with N 2-17 (BeV) (Berne virus (BEV)). Particulars: both partners purified.
Take B3: the Kd is 2.7 ± 0.1 µM.

The target of a further test is B2. Particulars: both partners purified.
YQLGEESEERDDHLLPM [M6PR 262-277 (Human)] showed a dissociation constant Kd of 21 ± 1 µM. Still for that read-out and setting: for PDDDDLWLPPPEYIPL [M 26-41 (RABV)] the value was 148 ± 8 µM. Take YKLVSFHDDSDEDLLHI [IGF2R 2476-2491 (Human)]: the Kd is 4.7 ± 0.2 µM. On the same count and under the same terms, for {FITC}-DDSDEDLLHI [FITC - IGF2R 2482-2491 (Human)] the value was 4.2 ± 0.4 µM.

For the next test, the target named is T2, GAE domain of ADP-ribosylation …. The note with it: both partners purified.
Molecule TSGNGDFGDWSAFNQA [CLINT1 366-381 (Human)] returned a Kd of 35 ± 3 µM.

The molecule SSPERGWSDYTSGANN [P/V/C 130-145 (NiV)] yielded a Kd of 48 ± 6 µM. Still for that read-out and setting: the same measure for NLDESDFGPLVGADSVY [RABEP1 433-448 (Human)]: 1.7 ± 0.3 µM; for SSLADDFGEFSLFGEY [SYNRG 664-679 (Human)]: 11.2 ± 0.3 µM. The same measure, in the same setting: for {FITC}-DESDFGPLVGAD [FITC - RABEP1 435-446 (Human)] the value was 1.9 ± 0.1 µM; for DPDDGSYGEYQSYSEN [NP 460-485 (ZEBOV)], 10.6 ± 0.5 µM.

Another test addresses T3, Mu homology domain (MHD) of the AP-2 …. The note with it: both partners purified.
SIEELEYQRLVTSLSK [L 177-192 (OLVV)] returned a dissociation constant Kd of 10.9 ± 0.1 µM. The molecule ANEIAAYALLADDLPP [N 124-139 (MuV)] came in with a Kd of 4 ± 0.1 µM.

Take EKKRGNYSRLDDRQVR [F 519-534 (HeV)]: binding was put at a Kd of 14 ± 1 µM.

In turn, NLNRVRYSKLDENGVY [Nsp4 75-90 (BAV)] displayed an equilibrium dissociation constant (Kd) of 15.9 ± 0.2 µM. Same read-out and setting: for VNVGEQYQQLREAATE [NP 334-349 (ZEBOV)] the value was 9.51 ± 0.07 µM; for WLPPPEYVPLHEISSK [M 32-47 (WCBV)], 12 ± 0.4 µM.
